The nanobody polyreactivity screen of Harvey et al. (2022)

Assay: yeast display, Sf9 membrane polyspecificity reagent, FACS + sequencing; frameworks hold sequencing errors
In short: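 A synthetic nanobody library was expressed on Saccharomyces cerevisiae BJ5465 by galactose induction for 36–48 hours. The library was stained for 1 hour at 4 °C with 10% biotinylated, detergent-solubilized Sf9 membrane reagent and enriched with streptavidin microbeads before FACS. Low and high (top ~1%) gates were set on anti-HA fluorescence for expression and streptavidin fluorescence for reagent binding, and each polyreactivity label reflects the gate of origin.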

Sequence	polyreactivity (PSR sort gate)
QVKLVESGGGLVQAGGSLRLSCAASGNIFRRYTMGWYRQAPGKERELVAAISSGGSTNYADSEKGRFTISRDNAKNTVYLQMNSLKPEDTAVYYCAVSYRSFRYYWERYYSWGQGTQVTVSS	high polyreactivity
QVKLVESGGGLVQAGGSLRLSCAASGRIFVSKAMGWYRQAPGKERELVAAISKRGASTYYADSVKGRFTISRDKAKNPVYLQINSLKPEDTEVYYCNVVTTGGPNYDYWGQGTQVTVSS	high polyreactivity
QVKLVESGGGLVQAGGSLRLSCAASGRTFRYNAMGWYRQEPGEERELVASITSGGSTNYADSVKGRFTISRDNAKNTVYLQMNRLKPEDTAVYYCAADERRPYWQHCIGSGRPFDYWGQGTQVTVSS	low polyreactivity
QVKLVESGGGLVQAGGSLRLSCAASGRTFVWNAMGWYRQAPGKERELVAAISSSGTSTYYADSVKGRFTISRDNAKNTVYLQMNSQKPEDTAVYYCAKDLLYQPTIRDYWGQGTQVTVSS	low polyreactivity
QVKLVESGGGLVQAGGSLRLSCPASGSTFVLNAMGWYRQAPGKERELVAAITWSGASTYYADSVKGRFTISRDNAKNTVYLQMNSLKPEDTAVYYCANDIPTDYKDVNYWGQGTQVTVSS	low polyreactivity
QVKLVESGGGLVQAGGSLRLSCSASGSIITHNTMVWYRQAPGKERELVASIDSGASTNYADSVKWRFTISRDNAKNSVYLLMNSLKPEDTAVYYCAADDANFRYRDDYWGQGTQVTVSS	low polyreactivity
QVKLVESGGGLVQAGGSLRLSFAASGSIFFIYAMGWYRQETGKERELVASINSGGTTSNADSVKGRFTISRDNAKNTVYLQLNSLKPADTAVYYCATRGIVGILDSLSEEYYYWGQGTQVSVSS	low polyreactivity
QVKLVESGGGLVQAGGSLRLSSDASGSIFLYNAMGWYRQAPGKERELVADISWSGGSTYYADSVKGRFTISRVNEKYTVYLQMNSLKPEDTAVYYCNAVVYWFSTSYVYTYDYWGQGTQVTVSS	high polyreactivity
QVKLVESGGGLVQAGRSLRLSFAASGSTFLYYGMGWYRQAPGKERELVATITWRGGRTYYADSVKGRFTISRDNAKNTVYLQMNSLKPEDTAVYYCAARVVGSYRKPYPYGLYYWGQGTQVTVSS	high polyreactivity
QVKLVESGGRLVQAGGSLRLSCAASGRNFYNYAMGWYRQAPGKERELVAAISKSGGRTYYADSVKGRFTISRDNAKNTVYLQMNSLKPEDTAVYYCAAEPFIPDQSRYYYWGQGSQVTVSS	high polyreactivity
QVKLVESGGRLVQAGGSLRLSCAASGSIFYYYAMGWYRQAPVKERELVAAITNYADSVKGRFTISRDNAKNTVYLQMNSLKPEDTAVYYCAADWWRVEMDYWGQGTQVTVSS	low polyreactivity
QVKLVESGGVLVQAGGSLRLSCAASGRIFGTYAMGWYRQAPGKERELVASISYSDGSTYADSVKGRFTISRDNAKNTVYLQMNSLKPEDTAVYYCAADVYYYAQCEDGYWGQGTQVTVSS	low polyreactivity
QVKLVESGRGLVQAGGSLRVSCAASGRIFQRYVMGWYRQAPGKERELVAAITWSGGSTYADSVKGRFTISRDNAKNTVYLQMNSLKTEDTAVYYCAARVPYNYWGMYYLYDYWGQGTQVTVSS	high polyreactivity
QVKLVESGVGLVKAGVSLRLSSAASGFTFYSYAMGCYRQAPGKESELVAAISWSGSRTYYADSVKGRFTISRDNAKNTVYLQMNSLKPEDTGVYYCAAYSYVRYSSWSDYWGLGTQVTVSS	high polyreactivity
QVKLVESRGGLVQAGGSLRLSCAASARIFVHNAKGCYRQAPGKAREFDAAITRRGGSTYADSVKGRFRISRDNAKNTVYLQMTSLKPEDTAVYYCNAESYYGIFRYNYDYWGQGTQVTVSS	high polyreactivity
QVKLVETGGGLVQAGGSLRLSCAASGFIFYKYAMGWYRQAPGKERELVASITSGGITNYADSVKGRFTISRDNAKNTVYLQMNSLKPVDTAVYYCNVRWYSRWLITTDYNYWGQGTQVTVSS	high polyreactivity
QVKRVESGGGLVQAGGSLRLSCAASGIMFSPNDMGRFRQGPGKERELVARITTDGSSTYYADSVKGRFTISRDNAKNTVYLQINSLKPEDTAVYSCNADQLWYSLFDYWGQGTLVTVSS	high polyreactivity
QVLIVESGGGLVQAGGSLRLSCADSGLTLAHYTMGWYRQSPGKERELVAAITFSGGRTYYADSVKGRFTISRDNAKNTVYLQMNSLKPEDTAVYYCNDEYQWGGYGYDYWGQGTQVTVSS	low polyreactivity
QVLLEESGGGLVQAGGSLRLSCAASGRIFLRKVMGWYRQAPGKERELVAAISLSGASTYYADSVKGRFTISRDNAKNTVYLQMNCLKPEDTAVYYCAADITILYDYWGQGTQVTVSS	low polyreactivity
QVLLQESGGGLVQAGGSLRLSCAASGNIFSAGGMGWYRQAPVNERELVAGIGTGTSTNYADSVKGRFTISRDNAKNTVYLQMNILKPEDTAVYYCAAAYYSGLSHWYWGQGTQVTVSS	low polyreactivity
QVLLQESGGGLVQAGGSLRLSCAASGNIFSAGGMGWYRQAPVNERELVAGIGTGTSTNYADSVKGRFTISRDNAKNTVYLQMTSLKPEVTAVYYCAAAYYSGLSHWYWGQGTQVTVSS	low polyreactivity
QVLLQESGGGLVQAGGSLRLSCAASGNIFSAGGMGWYRQAPVNERELVAGIGTGTSTNYADSVKGRFTISRDNANNTVYLQMNSLKPEDTAVYYCAAAYYSGLSHWYWGQGTQVTVSS	low polyreactivity

Sequence	polyreactivity (PSR sort gate)
QVLLQESGGGLVQAGGSLRLSCAASGSIFLFYTMGWSRQAPVKEREFVAGITLGTTTYNADSVKGRFTISRDNVKNTVYLQMNSLKPEDTAVYYCAVAVGHYTEFWYWGQGTQVTMSS	high polyreactivity
QVLLQESGGGLVQAGGSLRLSCAASGSIFLFYTMGWYRQAPVKEREFVAGITLGTTTYNADSVKGRFTISRDNVKNTVYLQMNSLKPEATAVYYCAVAVGHYTVFWYWGQGTQVTMSS	high polyreactivity
QVLLQESGGGLVQAGGSLRLSCAASGSIFLFYTMGWYRQAPVKEREFVAGITLGTTTYNADSVKGRFTISRDNVKNTVYLQMNSLKPEDTAVYYFAVAVGHYTEFWYWGQGTQVTMSS	high polyreactivity
QVLLQESGGGLVQAGGSLRLSCAASGTISTDIRMGLYSLAPGKAREFVASIDGCSTTYYADSVKGRFTISRDNAKNTVYLKMNSLKPVDTAMYYCAAREATEFYLYYWGQGTQVTVSS	low polyreactivity
QVLLQESGGGLVQAGGSLRQSCAASGNIFSAGGMGWYRQAPVNERELVAGIGTGTSTNYADSVKGRFTISRDNAKNTVYLQMNSLKPEDTAVYFCAAAFYSGLSHWYWGQGTQVTVSS	low polyreactivity
QVLLQESGGLLQAGCSLRMSCAASGSISTALSMVWYRQAPGKERELVATISDGASTNYADSVKGRFTISRVNAKNTVYLQMNSLKPEDTEVYYCAAQSQYRPDHRYWGQGTQVTVSS	high polyreactivity
QVLLVEAGGGLVQAGGSLRLSCAASGRIFRRYAMGWYRQAPGKERELVAAISSGGGSTYYADSVKGRFTISRDNAKNTVYLQMNSLKPEDTAVYYCNTDFYYDDVSQAHDYWGQGTQVTVSS	high polyreactivity
QVLLVESAVGLVQAVGSLRLSCAASGSICYTNGMGWYRQAPGNERELVASITRSGGSTYYADSVKGRFTISRDNAKNSVYLQMNRLKPEDTAVYYCATSWGYRGLWGLRFDYWGQGTQVSVSS	low polyreactivity
QVLLVESGGGFVQAGGSLRLSCSASGSIFSPYTMGWYRQATGKERELVAAISRGGNTYYADSVKGRFTISRDNAKNTVYLQMNSLKPEDTAVYYCAARAKYDRRTDGTSGYDYWGQGTQVTVSS	low polyreactivity
QVLLVESGGGLVQAGGILRLSCAASGLTFTYYAMGWYRQAPGKERELVAAISRCGTGTYYADSVKGRFTISRDNAKNTVYLHMNSLKPEDTAVYYCATLPGRYFTANEYWGQGTQVTVSS	high polyreactivity
QVLLVESGGGLVQAGGILRLSCAASGNILGYNAMGWSRQAPGKERELVAAISWIGGSTYYADSVKGRFTISRDNAKNTVYLQMNSLKQEDTAVYYCASRYRTYFTYEYWGQVTQVTVSS	low polyreactivity
QVLLVESGGGLVQAGGSHRLSCAASGITIRFYAMGWYRQAPGKEREFHAAISRSGSTYYADSVKGRFTISRDNAKNTVYLHLNSVKPEDTAVYYCAADSYRSAQGLDYWGQGTQVTVSS	high polyreactivity
QVLLVESGGGLVQAGGSLRLSCAASGFTFGVYAMRWYRQAPGKERELVAAISTTVGSTYYADSVKGRFTISRDNAKNTVYLQMNSLKPEDTAVYYCHYPYDYWGQATQVTVSS	low polyreactivity
QVLLVESGGGLVQAGGSLRLSCAASGLTFRYYAMGWYRQAPGKERELVAAITSGGSTYYADSVKGRFTISRDNAKNTVYLQMNSLKPEDTAVYYCNKLLGRTVRHDYWGQGTQVTVSS	high polyreactivity
QVLLVESGGGLVQAGGSLRLSCAASGRTFRGNAMGWYRQAPGKERELVAAISRSGGTTYYADSVKGRFTISRYNAKNTVYLQMNSLKPEDTAVYYCNRGWATWHGPDDYWGQGTQVTVSS	high polyreactivity
QVLLVESGGGLVQAGGSLRLSCAASGRTFYNYSMGWYRQAPGKERELVAAISGGGTTNYADTVKGRFTISRDNAKNTVYLQMNSLKPEDTAVYSCNAARTRWATGYDYWGQGTQVTVSS	low polyreactivity
QVLLVESGGGLVQAGGSLRLSCAASGSIFGAYAMGWYRQAPGKVRELVAAINYGGATTYYADSVKGRYTISRDLAKNTVYLQMNSLKPQDTAVYYCAADNDTDHSSATYGYDYWGQGTQVTVSS	low polyreactivity
QVLLVESGGGLVQAGGSLRLSCAASGSIFGYKDMGWYRQAPGKERELVASITRGGGRTRYADSVKGRFTISRDNAKNTVYLQMNSLKPEDTAVYYCAADKLSYSYVRPPRNHEDYWGQGTQVTVSS	low polyreactivity
QVLLVESGGGLVQAGGSLRLSCAASGSTIRYYAMGWYRQAPGKERELVAAISWRGGSTYYADSVKGRFTISRDNAKYTVYLQMNSLKPEDTAVYYCAVEAVAYGFFHYDYWGQGTQVTVSS	high polyreactivity
QVLLVESGGGLVQAGGSLRLSCSASGNAMGWYRQAPGKERELVAAITRRGGSTYYADSVKGSFTISRDNAKNTVYLQMNSLKPEDTAVYYCADDNPSYNLWYGYWGQGTQVTVSS	low polyreactivity
QVLLVESGGGLVQAGGSLRLSGAASGRTFRRNAIGWYRQAPGKERELVAAISASGGSTYYADSVKGRFTISRDNAMNTVYLEMNSLKPEDTADYYCAAVSQTTYWGQGTQVTVSS	high polyreactivity
